Measurements taken from the supplement of paper PMC9732359.
± gives the uncertainty stated by the source.

Test: protein stability index of a GFP-peptide fusion (yeast GPS) (PSI 1-4); higher = more stable; sorted into four equal gates, so the index is relative within each strain
How it was run: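 Mid-log yeast cultures in leucine-free medium, carrying a pooled plasmid library, were sorted into four equal gates by their GFP/Cherry fluorescence ratio. Each plasmid expressed Cherry along with GFP fused upstream of a tiled 17-residue yeast protein peptide. Plasmids recovered from each gate were PCR-amplified and Illumina-sequenced, with reads assigned to strains by barcodes. The protein stability index was obtained by summing each gate's read frequency weighted by its gate number.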

Row | Sequence | protein stability index (doa10∆) | protein stability index (pdr5∆) | protein stability index (san1∆) | protein stability index (ubr1∆)
1 | HARTAAVTHNLYYDEDI [PUP2] | 3.21 ± 0.16 | 3.22 ± 0.17 | 2.86 ± 0.23 | 2.63 ± 0.1
2 | HPKLIKNKSGKIFVETK [FAS1] | 2.3 ± 0.067 | 2.76 ± 0.067 | 2.47 ± 0.13 | 2.67 ± 0.1
3 | ASPHASVRTAVFSALKN [ECM29] | 1.56 ± 0.051 | 1.58 ± 0.05 | 1.25 ± 0.083 | 1.42 ± 0.056
4 | CSRIIKIDKPIRTQVNT [RGR1] | 1.94 ± 0.067 | 2.31 ± 0.047 | 2.09 ± 0.059 | 2.1 ± 0.039
5 | TAVVNNAAPANVTGGKA [SWI1] | 2.64 ± 0.038 | 1.98 ± 0.04 | 2.37 ± 0.093 | 2.66 ± 0.037
6 | KSYASLLAQLNGTVNNN [RPT3] | 2.61 ± 0.14 | 1.84 ± 0.11 | 2.2 ± 0.19 | 2.55 ± 0.12
7 | RNFDTHENYIQDDDFPL [MCD1] | 2.92 ± 0.06 | 2.8 ± 0.053 | 2.85 ± 0.048 | 2.91 ± 0.045
8 | EEIVSNSSRFSDPMLQR [YCS4] | 3.07 ± 0.096 | 2.95 ± 0.082 | 3.28 ± 0.096 | 3.07 ± 0.056
9 | KTITLEVESSDTIDNVK [RPS31] | 2.88 ± 0.1 | 3.08 ± 0.062 | 2.77 ± 0.12 | 2.64 ± 0.086
10 | LSDRITGNFIIPSGNVW [PRP8] | 2.76 ± 0.1 | 3.1 ± 0.087 | 2.84 ± 0.064 | 2.9 ± 0.065
11 | SYWQKSYFKNSVIVKFH [LIN1] | 2.56 ± 0.041 | 2.62 ± 0.045 | 2.42 ± 0.06 | 2.35 ± 0.041
12 | RNEVLESMDFLVLADAF [YCS4] | 2.04 ± 0.048 | 2.31 ± 0.086 | 2.43 ± 0.092 | 2.72 ± 0.048
13 | SFTYELKQHNQNNLPPN [BRR2] | 2.95 ± 0.094 | 3.21 ± 0.087 | 2.78 ± 0.1 | 2.9 ± 0.12
14 | CAEGIFVVKLDTVDRLI [GAL11] | 2.89 ± 0.12 | 3.13 ± 0.11 | 3.02 ± 0.13 | 2.62 ± 0.092
15 | DGHLQFLNDVIPTTKNL [DLS1] | 2.96 ± 0.094 | 3.05 ± 0.068 | 2.8 ± 0.072 | 3.04 ± 0.073
16 | VAAASKILSNLVYQYKG [PRE2] | 2.62 ± 0.088 | 2.5 ± 0.056 | 2.54 ± 0.078 | 2.49 ± 0.051
17 | NVFTPEISSQIEILVKD [RRI2] | 1.65 ± 0.1 | 2.02 ± 0.12 | 2.65 ± 0.15 | 1.3 ± 0.066
18 | RLQQGRRLPMTMFTAEQ [SNF2] | 3.09 ± 0.053 | 3.19 ± 0.048 | 3.13 ± 0.043 | 3.27 ± 0.045
19 | TTESNSRLKALNLQFKA [YLR335W/NUP2] | 3.25 ± 0.11 | 3.04 ± 0.064 | 3.15 ± 0.066 | 2.98 ± 0.073
20 | YSDENDPSISNNIRQAI [RRP4] | 2.53 ± 0.077 | 2.75 ± 0.066 | 3 ± 0.065 | 2.47 ± 0.061
21 | RQRELLIAHQRSAWNNN [GRR1] | 1.94 ± 0.045 | 2.24 ± 0.046 | 2.31 ± 0.06 | 2.16 ± 0.035
22 | TPYNADFDGDEMNLHVP [RPO31] | 2.83 ± 0.087 | 3.35 ± 0.085 | 3.07 ± 0.075 | 3.21 ± 0.062
23 | DNKINEIKLLEISCKQW [CSI1] | 2.54 ± 0.18 | 2.43 ± 0.17 | 2.17 ± 0.12 | 2.45 ± 0.12
24 | NDDKKTEPDKPAFSFNS [YJL041W/NSP1] | 2.89 ± 0.047 | 3.12 ± 0.039 | 3.07 ± 0.032 | 3.202 ± 0.029
25 | KNVKHSGNIQLDEIIEI [RPL12A] | 3.24 ± 0.071 | 3.2 ± 0.067 | 3.15 ± 0.053 | 3.22 ± 0.065
26 | LRSTENGIVDQVLVTTN [RPB2] | 2.39 ± 0.095 | 2.03 ± 0.11 | 2.46 ± 0.099 | 1.82 ± 0.055

Row | Sequence | protein stability index (doa10∆) | protein stability index (pdr5∆) | protein stability index (san1∆) | protein stability index (ubr1∆)
27 | LKNKNFKCQEKDKGVYV [SIR2] | 3.53 ± 0.22 | 3.03 ± 0.093 | 3.38 ± 0.077 | 3.27 ± 0.17
28 | TVRKSIACVLTVINEQQ [RPL35A] | 1.62 ± 0.077 | 2.07 ± 0.077 | 2.21 ± 0.079 | 2.11 ± 0.063
29 | IAKSQDKKSCSVDDVLS [DPB4] | 3.28 ± 0.057 | 3.15 ± 0.077 | 3.22 ± 0.055 | 3.16 ± 0.039
30 | PTSAQKSAVSHAPAYHR [IRR1] | 2.81 ± 0.14 | 2.69 ± 0.12 | – | 2.89 ± 0.062
31 | ASSTPIPVLGKPTDATG [YOR098C/NUP1] | 2.43 ± 0.055 | 2.88 ± 0.055 | 2.6 ± 0.05 | 2.42 ± 0.036
32 | YVAPTKKEYIELDILNK [SRB4] | 2.76 ± 0.17 | 3.25 ± 0.22 | 2.74 ± 0.13 | 2.75 ± 0.2
33 | KLTDEQSSLDVAGLEDK [SIR3] | 2.68 ± 0.083 | 2.85 ± 0.13 | 2.75 ± 0.083 | 3.1 ± 0.062
34 | QWLIMLGICTHLGCVPI [RIP1] | 1.69 ± 0.067 | 1.37 ± 0.078 | 1.29 ± 0.14 | 1.46 ± 0.089
35 | RRYKLLTATPNSINKTT [POP1] | 2 ± 0.046 | 2.38 ± 0.049 | 2.4 ± 0.065 | 2.52 ± 0.042
36 | KVVEFAITHMIDALGTE [SCL1] | 2.03 ± 0.044 | 2.28 ± 0.038 | 2.27 ± 0.079 | 2.18 ± 0.023
37 | ASAASEAIRDPKNSSSP [SSN8] | 2.61 ± 0.19 | 3.18 ± 0.2 | 2.46 ± 0.25 | 3.13 ± 0.13
38 | ERRVLLSAPLSKELRAQ [RPL26B] | 2.87 ± 0.07 | 2.9 ± 0.047 | 2.89 ± 0.055 | 2.79 ± 0.043
39 | MSRDAPIKADKDYSQIL [RPN5] | 2.97 ± 0.1 | 2.44 ± 0.078 | 2.21 ± 0.13 | 2.67 ± 0.062
40 | FREWQYFKLSITSFDQD [POP8] | 1.94 ± 0.052 | 2.53 ± 0.06 | 2.52 ± 0.061 | 2.51 ± 0.045
41 | TTGISSTGAADGGYNAQ [SMC2] | 3.32 ± 0.13 | 3.4 ± 0.093 | 3.23 ± 0.069 | 3.17 ± 0.11
42 | GSEILGDLKLQVLLDEE [RPO21] | 3.25 ± 0.12 | 3.35 ± 0.13 | 3.04 ± 0.14 | 3.28 ± 0.1
43 | EKASRQQRKQKKNRDKK [RPS24A] | 3.44 ± 0.094 | 3.17 ± 0.075 | 3.25 ± 0.044 | 3.32 ± 0.083
44 | AKETHTKPSETPATIVK [YOR098C/NUP1] | 3.28 ± 0.092 | 3.17 ± 0.066 | 2.87 ± 0.064 | 3.12 ± 0.066
45 | LKKNNYNSFPHSNLEKI [SIR4] | 3.06 ± 0.099 | 3.27 ± 0.094 | 3.19 ± 0.053 | 3.17 ± 0.054
46 | FGPIKVELPTKETVEIG [FAS1] | 3.01 ± 0.084 | 3.28 ± 0.07 | 3.23 ± 0.067 | 3.02 ± 0.066
47 | SADDDVNNGNIPSQRGT [SIR3] | 2.97 ± 0.24 | 3.01 ± 0.1 | 2.67 ± 0.11 | 2.86 ± 0.11
48 | LNKDSTNEFVGSPSLTS [NUT1] | 2.96 ± 0.062 | 3.18 ± 0.057 | 2.93 ± 0.044 | 2.9 ± 0.042
49 | NLGRAVFWEIQSRVPTS [PRP8] | 2.05 ± 0.1 | 2.22 ± 0.17 | 2.17 ± 0.092 | 2.4 ± 0.18
50 | LFDTYHASKAIGLPRHS [RRP6] | 2.15 ± 0.061 | 2.29 ± 0.06 | 2.34 ± 0.081 | 2.08 ± 0.071
51 | ENYDDTELRQLFQENDD [DSN1] | 2.23 ± 0.072 | 2.63 ± 0.077 | 2.6 ± 0.096 | 2.55 ± 0.13
